Target: NADPH-dependent thioredoxin reductase from Methanosarcina mazei strain Gö1 (Methanosarcina mazei strain Gö1)
Test: SEC; Sephacryl S-300 gel filtration in 10 mM Tris-HCl pH 7.6, 100 mM NaCl, 2 mM 2-mercaptoethanol; column calibrated with the Bio-Rad Gel Filtration Standard; monomer to dimer

## NADPH-dependent thioredoxin reductase from Methanosarcina mazei strain Gö1 (enzyme)
  stoichiometry N: 2

Source: PMC6262447
